Measurements reported in patent US20080311122A1 (AstraZeneca / MedImmune, published 2008).
Numbering of substitutions follows the chain as printed.

T1: HMG1 B Box peptide amino acids 150-183
T1 peptide: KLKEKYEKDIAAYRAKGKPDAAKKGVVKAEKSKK

T2: recombinant rat HMGB-1, Europium-labeled (rat, UniProt P63159 1-215, limits assumed, Europium label, molar ratio of HMGB-1 to Eu 1:5)
T2 construct: also called Europium-labeled HMGB-1; recombinant HMG1 (Thp-1 assay)
T2 sequence (looked up): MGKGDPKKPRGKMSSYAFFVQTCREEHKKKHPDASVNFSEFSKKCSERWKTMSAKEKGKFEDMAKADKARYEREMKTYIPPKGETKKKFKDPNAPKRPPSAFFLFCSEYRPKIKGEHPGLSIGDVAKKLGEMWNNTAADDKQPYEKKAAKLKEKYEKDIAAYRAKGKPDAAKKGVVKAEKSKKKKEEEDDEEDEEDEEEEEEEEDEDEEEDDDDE

T3: HMG2 (UniProt P40673 2-209, limits assumed)
T3 construct: also called HMGB2; HMBG2
T3 sequence (looked up): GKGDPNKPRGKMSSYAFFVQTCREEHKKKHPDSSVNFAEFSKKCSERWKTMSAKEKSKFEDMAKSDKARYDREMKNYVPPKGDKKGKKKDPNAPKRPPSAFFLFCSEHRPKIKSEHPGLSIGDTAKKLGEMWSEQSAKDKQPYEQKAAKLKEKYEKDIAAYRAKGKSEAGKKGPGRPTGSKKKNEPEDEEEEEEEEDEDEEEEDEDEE

T4: recombinant HMG1 purified from E. coli as a calmodulin binding protein (CBP) fusion protein (human, UniProt A9RA84 1-215 (Papio anubis entry))
T4 sequence: T2 sequence (looked up) with D189E, E202D

T5: HMG1 purified from bovine (calf) thymus (bovine, UniProt P10103 2-215)
T5 construct: also called Calf thymus HMGB1; thymus HMG1
T5 sequence (looked up): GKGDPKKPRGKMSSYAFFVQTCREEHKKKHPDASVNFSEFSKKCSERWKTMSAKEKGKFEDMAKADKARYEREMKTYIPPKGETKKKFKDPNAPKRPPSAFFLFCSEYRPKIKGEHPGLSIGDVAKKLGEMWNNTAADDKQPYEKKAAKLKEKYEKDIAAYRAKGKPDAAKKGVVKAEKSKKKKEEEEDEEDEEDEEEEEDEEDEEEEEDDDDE

T6: HMG1 B Box peptide amino acids 91-169
T6 construct: also called HMG1 peptide 91-169
T6 peptide: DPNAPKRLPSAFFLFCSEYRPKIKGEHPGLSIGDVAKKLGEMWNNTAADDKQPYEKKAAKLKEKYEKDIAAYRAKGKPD

T7: activated HMG1 prepared from LPS stimulated THP-1 cells (human, UniProt P09429 1-215)
T7 sequence (looked up): T2 sequence (looked up) with D189E, E202D

B1: anti-HMG1 antibody G2 (antibody, V domains shown)
VH: EVQLLESGGGLVQPGGSLRLSCAASGFTFSWYKMQWVRQAPGKGLEWVSGISPSGGSTAYADSVKGRFTISRDNSKNTLYLQMNSLRAEDTAVYYCAKMGLFNTGNSYVDYWGQGTLVTVSS
VL: AQSELTQPPSVSEAPGQRVTISCSGSTSNIGNNAVIWYQQLPGKAPKLLIYYDDLLPSGVSDRFSGSKSGTSGSLAISGLQSEDEADYYCASWDDNLNGPLFGGGTKLTVL
B2: anti-HMG1 antibody S10 (antibody, V domains shown)
VH: EVQLLESGGGLVQPGGSLRLSCAASGFTFSWYDMWWVRQAPGKGLEWVSWIVPSGGITAYADSVKGRFTISRDNSKNTLYLQMNSLRAEDTATYYCARGNYGPSPFDYWGQGTLVTVSS
VL: DIQMTQSPGTLSLSPGERATLSCRATQSVRKNFLAWYQQKPGQAPRLLIYDASSRATGIPDRFSGSGSGTDFTLTISRLEPEDFAVYYCQQYGNSPIIFGQGTRLEIK
B3: anti-HMG1 antibody S17 (antibody, V domains shown)
VH: EVQLLESGGGLVQPGGSLRLSCAASGFTFSYYDMHWVRQAPGKGLEWVSRISPSGGYTWYADSVKGRFTISRDNSKNTLYLQMNSLRAEDTAVYYCTRGRYTSGWHEYFDPWGQGTLVTVSS
VL: DIQMTQSPSSLSASVGDRVTITCRASQSIGTYLNWYQQKPGTAPKVLIYAASSLQSGVPSRFSGSGSGTDFTLTISSLQPEDFSTYYCQQSYNTPRTFGQGTKLEIK

Experiments:
[1] = target: T1, HMG1 B Box peptide amino acids 150-183; assay: ELISA, wells coated with HMG1 B Box peptide 150-183 at 10 ug/ml
Procedure: (§1) The plate was then blocked with 4% milk powder dissolved in PBS at 37° C. for 1 hour. The blocking solution was removed and replaced with human anti-HMG1 antibodies at various concentrations (see FIGS. 5A-B). […] HRP activity was detected with Sureblue HRP substrate (KPL). Plates were read at 450 nm using a Kinetic Microplate Reader (Molecular Devices). […] After washing and blocking with 1% BSA in PBS, the biotinylated peptides were individually added into the avidin coated wells and incubated for 30 min at room temperature. The serial diluted antibody G4, S16 and S6 at the initial concentration at 10 μg/ml were then transferred into the wells followed by adding mouse anti human IgG-HRP conjugate (Pierce). Detection was accomplished by adding 50 μl of tetramethylbenzidine (TMB) substrate (KPL) and the absorbance was read at […].

[2] = target: T2, recombinant rat HMGB-1, Europium-labeled; assay: inhibition of binding of Eu-labeled HMGB-1 to THP-1 cells
Procedure: HMG1 binding to THP-1 Cells: Recombinant rat HMGB-1 was labeled using Eu-labelling Kit from PerkinElmer. Molar ratio of HMGB-1 to Eu is 1:5. THP-1 were cultured as the protocol from ATCC. Cells were harvested and suspended at concentration 1×10⁶/ml in assay buffer containing 1×DELFIA L*R binding buffer (PerkinElmer), 50% of DELFIA stabilizer (PerkinElmer) and 0.05% of sodium azide. 100 μl of cells (1×10⁵) was added into wells in 96 well cell culture plate. The plate was incubated with gentle shaking at 4° C. for one hour. 100 μl of assay buffer containing 2 nM of Europium-labeled HMGB-1 mixed with various concentrations (333, 166.5, 83.25, 41.6, 20.8, 10.4 and 5.2 nM) of human anti-HMGB1 antibodies E11 or G2 or soluble human RAGE-Fc, were added into each wells respectively. After one hour incubation with gentle shaking at 4° C., the cells were washed four times with 1×L*R wash buffer (PerkinElmer) by centrifuging at 1200 rpm×5 min. 200 μl of enhancement solution was added into each well to dissociate and enhance Eu fluorescence at 615 nm. The fluorescence was measured with Wallac Victor Fluorometer. Assay was performed in triplicate and human antibody R3-47 was used the negative isotype control.

HMG2 = target: T3, HMG2; assay: ELISA, wells coated with HMGB2 at 5 ug/mL, OD 490
Procedure: (§2) Binding to HMG1 vs. HMG2: Ultra high-binding ELISA plates (ThermoLab systems, #3855) were coated with either 5 ug/mL of Calf thymus HMGB1 or HMBG2 diluted in 10 mM Phosphate buffered saline (PBS), pH 7.2 and incubate overnight at 4 degrees. The plates were washed twice with Ca and Mg free PBS and 100 microliters of anti-HMGB1 antibody diluted in 10 mM PBS, pH 7.2+1% bovine serum albumin (BSA) to a final concentration of 10 ug/mL was added to each well and the plates were incubated 1 hour at room temperature. The wells were washed three times with 100 μl of PBS, pH 7.2. HRP labeled goat-anti-human IgG Kappa-chain (KPL, #14-10-10) and goat-anti-human IgG Lambda-chain (KPL, #14-10-11) were diluted in 10 mM PBS+1% BSA 1:1000 and 100 μl were added to each well and incubated for 1 hour at room temperature. The wells were then washed three times with 100 μl of PBS, pH 7.2. OPD substrate (Pierce chemical company, #34006) was prepared following the manufacturers instructions and 100 μl of prepared substrate was added to each well and the plates incubated at room temperature in the dark for 20-30 minutes. The reaction was stopped with the addition of 100 μl of 2M H₂SO₄, and the plates read on a plate reader at a wavelength of 490 nm.

[3] = target: T4, recombinant HMG1 purified from E. coli …; assay: cell-based or functional assay
[4] = target: T5, HMG1 purified from bovine (calf) thymus; assay: ELISA, wells coated with calf thymus HMGB1 at 5 ug/mL, antibody at 10 ug/mL, anti-human kappa/lambda-HRP, OD 490
Procedure: as §2

[5] = target: T6, HMG1 B Box peptide amino acids 91-169; assay: ELISA, wells coated with HMG1 B Box peptide 91-169 at 10 ug/ml
Procedure: as §1

[6] = target: T4, recombinant HMG1 purified from E. coli …; assay: BIAcore, mAb immobilized, HMG1 injected, steady-state model
Procedure: HMG1 Binding Affinity via BIAcore Analysis: All experiments were performed on a BIAcore 3000 instrument (BIAcore, Inc., Piscataway, N.J.). Briefly, each mAb was immobilized to a CM5 sensor chip using a standard amino coupling chemistry. Separately a reference (control) flow cell was also prepared. Two-fold, serial dilutions of HMG1 in instrument buffer were sequentially injected at a slow flow rate over the individual mAb and reference flow-cell surfaces. Following the binding and dissociation of HMG1, the mAbs surfaces were regenerated with a brief pulse of 1M NaCl-50 mM NaOH. At the end of each experiment, the binding curves were evaluated using a steady-state model available through the BIA evaluation software supplied by BIAcore, Inc. (Piscataway, N.J.).

[7] = target: T4, recombinant HMG1 purified from E. coli …; assay: ELISA, rHMG1 preincubated with antibody, coated RAGE-Fc
Procedure: HMG1 binding to RAGE-Ig by ELISA: 50 μl/well of RAGE-Fc fusion protein at 5 μg/ml in PBS was added to each well of an ELISA plate and incubated overnight at 4° C. The plate was then blocked with 200 μl of 5% milk at 37° C. for 1 hr and washed 3× with PBS/Tween. 50 μl/well of diluted HMGB1 solution. For dose curves, HMGB1 concentrations started at 4 ug/ml in PBS. For antibody blocking the HMGB1 was preincubated in another plate with human anti-HMG1 antibodies or buffer, then transferred to the RAGE-coated plate. The plates were then incubated at room temperature for 2 hours and washed 3×. To detect any HMG1 bound to the immobilized RAGE-Fc a mixture of biotinylated mouse anti-HMG1 mAbs (10D4, 4H11, 3E10 and 5C12) each at 1 ug/ml, total Ab: 4 ug/ml, were added to each well and the plate was incubated for 1 hour at room temperature. The plate was then washed and Strepavidin-HPR was added to each well and incubated 15 min. The plate was then washed 3× and blotted dry. 100 μl of TMB developing agent was added and the plate read at 650 nm. Values were calculated as percent of inhibition with HMG1 alone equal to 0% inhibition. The data in FIG. 9 and summarized in Table 1 represent the average of two separate experiments.

[8] = target: T7, activated HMG1 prepared from LPS …; assay: cell-based or functional assay

| Binder | binding result [1] | IC50 [2] [nM] | binding result (HMG2) | IC50, inhibition of rHMG1 stimulated IL-1β release from human PBMC [3] [µg/mL] | IC50, inhibition of rHMG1 stimulated IL-6 release from human PBMC [3] [nM] | IC50, inhibition of rHMG1 stimulated IL-12 release from human PBMC [3] [µg/mL] | IC50, inhibition of rHMG1 stimulated TNF-α release from human PBMC [3] [µg/mL] | binding result [4] | binding result [5] | Kd [6] [nM] | percent inhibition of HMG1 binding to RAGE-Fc [7] [%] | IC50, inhibition of native activated HMG1 stimulated IL-6 release from human PBMC [8] [nM] | IC50, inhibition of HMG1 stimulated NO release from macrophages [3] [µg/mL] |
| --- | --- | --- | --- | --- | --- | --- | --- | --- | --- | --- | --- | --- | --- |
| B1 | no binding (tested: 10 ug/ml (log 1.00)) | 73.3 | no binding (tested: 10 ug/mL (not on the sheet)) | 5.03 | 0.994 | 1.26 | 1.35 | binds | no binding (tested: 10 ug/ml (log 1.00)) | – | – | – | – |
| B2 | no binding (tested: 10 ug/ml (log 1.00)) | – | no binding (tested: 10 ug/mL (not on the sheet)) | 2.59 | 0.324 | 1.13 | 0.875 | binds | no binding (tested: 10 ug/ml (log 1.00)) | 54 | ≥ 35 | – | – |
| B3 | no binding (tested: 10 ug/ml (log 1.00)) | – | no binding (tested: 10 ug/mL (not on the sheet)) | 0.0809 | 0.162 | – | – | binds | no binding (tested: 10 ug/ml (log 1.00)) | – | – | 11.5 | 41.7 |
